Measured values as given in patent publication US20200190213A1 (REVITOPE, published 2020).

T1: Recombinant soluble EpCAM-His6 protein (UniProt P16422 24-265)
T1 construct: Coated on ELISA plates at 5 ug/ml; also called target antigen; not shown: His6 tag
T1 sequence (looked up): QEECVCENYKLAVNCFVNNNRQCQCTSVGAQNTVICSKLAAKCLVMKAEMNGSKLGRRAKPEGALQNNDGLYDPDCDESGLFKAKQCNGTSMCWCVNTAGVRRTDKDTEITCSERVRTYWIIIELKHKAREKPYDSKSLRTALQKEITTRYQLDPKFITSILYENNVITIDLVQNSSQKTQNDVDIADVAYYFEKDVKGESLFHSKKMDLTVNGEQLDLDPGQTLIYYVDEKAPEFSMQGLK

T2: Recombinant soluble EpCAM-His6 protein (UniProt P16422 24-265)
T2 chain: T1 sequence (looked up)

B1: TWICE278 (other)
heavy: EVQLLEQSGAELVRPGTSVKISCKASGYAFTNYWLGWVKQRPGHGLEWIGDIFPGSGNIHYNEKFKGKATLTADKSSSTAYMQLSSLTFEDSAVYFCARLRNWDEPMDYWGQGTTVTVSSASTKGPSVFPLAPSSKSTSGGTAALGCLVKDYFPEPVTVSWNSGALTSGVHTFPAVLQSSGLYSLSSVVTVPSSSLGTQTYICNVNHKPSNTKVDKKVEPKSCDKTHTGGGGSGGGGSQVQLVESGGGVVQPGRSLRLSCAASGFTFSSYTMHWVRQAPGKGLEWVTFISYDGNNKYYADSVKGRFTISRDNSKNTLYLQMNSLRAEDTAIYYCARTGWLGPFDYWGQGTLVTVSSGGGIEGRGGGDKTHTCPPCPAPELLGGPSVFLFPPKPKDTLMISRTPEVTCVVVDVSHEDPEVKFNWYVDGVEVHNAKTKPREEQYQSTYRVVSVLTVLHQDWLNGKEYKCKVSNKALPAPIEKTISKAKGQPREPQVYTLPPSRDELTKNQVKLTCLVKGFYPSDIAVEWESNGQPENNYKTTPPVLDSDGSFFLYSLLTVDKSRWQQGNVFSCSVMHEALHNHYTQKSLSLSPG
light: ELVMTQSPSSLTVTAGEKVTMSCKSSQSLLNSGNQKNYLTWYQQKPGQPPKLLIYWASTRESGVPDRFTGSGSGTDFTLTISSVQAEDLAVYYCQNDYSYPLTFGAGTKLEIKRTVAAPSVFIFPPSDEQLKSGTASVVCLLNNFYPREAKVQWKVDNALQSGNSQESVTEQDSKDSTYSLSSTLTLSKADYEKHKVYACEVTHQGLSSPVTKSFNRGECGGGGSGGGGSGGGGSQAVVTQEPSLTVSPGGTVTLTCRSSTGAVTASNYANWVQQKPGQAPRGLIGGTNKRAPWTPARFSGSLLGGKAALTITGAQAEDEADYYCALWYSNLWVFGGGTKLTVLGGGIEGRGGGDKTHTCPPCPAPELLGGPSVFLFPPKPKDTLMISRTPEVTCVVVDVSHEDPEVKFNWYVDGVEVHNAKTKPREEQYQSTYRVVSVLTVLHQDWLNGKEYKCKVSNKALPAPIEKTISKAKGQPREPQVYTLPPSRDELTKNQVSLTCLVSGFYPSDIAVEWESNGQPENNYKTTPPVLDSDGSFKLYSKLTVDKSRWQQGNVFSCSVMHEALHNHYTQKSLSLSPG
notes: One TWICE component: anti-EpCAM (Solitomab) Fab, Ipilimumab VH, SP34 VL, FXa-cleavable linkers, hetero-Fc; Uncleaved in the EpCAM ELISA; In the bridging ELISA it was tested alone, also after FXa cleavage; also called Ipilimumab VH SP34 VL Fc
B2: CD3 Fc-fusion protein (murine IgG2a Fc) (Fc fusion)
chain: DGNEEMGGITQTPYKVSISGTTVILTCPQYPGSEILWQHNDKNIGGDEDDKNIGSDEDHLSLKEFSELEQSGYYVCYPRGSKPEDANFYLYLRARVCENCMEMD
notes: Soluble antigen of the bridging ELISA; not shown: murine IgG2a Fc
B3: TWICE335 (other)
heavy: EVQLLEQSGAELVRPGTSVKISCKASGYAFTNYWLGWVKQRPGHCLEWIGDIFPGSGNIHYNEKFKGKATLTADKSSSTAYMQLSSLTFEDSAVYFCARLRNWDEPMDYWGQGTTVTVSSGGGSGGGGSQVQLVESGGGVVQPGRSLRLSCAASGFTFSSYTMHWVRQAPGKGLEWVTFISYDGNNKYYADSVKGRFTISRDNSKNTLYLQMNSLRAEDTAIYYCARTGWLGPFDYWGQGTLVTVSSGGGIEGRGGGDKTHTCPPCPAPELLGGPSVFLFPPKPKDTLMISRTPEVTCVVVDVSHEDPEVKFNWYVDGVEVHNAKTKPREEQYQSTYRVVSVLTVLHQDWLNGKEYKCKVSNKALPAPIEKTISKAKGQPREPQVYTLPPSRDELTKNQVKLTCLVKGFYPSDIAVEWESNGQPENNYKTTPPVLDSDGSFFLYSLLTVDKSRWQQGNVFSCSVMHEALHNHYTQKSLSLSPG
light: ELVMTQSPSSLTVTAGEKVTMSCKSSQSLLNSGNQKNYLTWYQQKPGQPPKLLIYWASTRESGVPDRFTGSGSGTDFTLTISSVQAEDLAVYYCQNDYSYPLTFGCGTKLEIKGGGGSGGGGSQAVVTQEPSLTVSPGGTVTLTCRSSTGAVTASNYANWVQQKPGQAPRGLIGGTNKRAPWTPARFSGSLLGGKAALTITGAQAEDEADYYCALWYSNLWVFGGGTKLTVLGGGIEGRGGGDKTHTCPPCPAPELLGGPSVFLFPPKPKDTLMISRTPEVTCVVVDVSHEDPEVKFNWYVDGVEVHNAKTKPREEQYQSTYRVVSVLTVLHQDWLNGKEYKCKVSNKALPAPIEKTISKAKGQPREPQVYTLPPSRDELTKNQVSLTCLVSGFYPSDIAVEWESNGQPENNYKTTPPVLDSDGSFKLYSKLTVDKSRWQQGNVFSCSVMHEALHNHYTQKSLSLSPG
notes: The anti-EpCAM targeting moiety is a disulfide-stabilized Fv (Cys at VH 44 and VL 100, Kabat); hetero-Fc dimerization domain; also called dsFv Ipilimumab VH SP34 VL Fc

Experiments:
[1] = target: T1, Recombinant soluble EpCAM-His6 protein; assay: ELISA on coated EpCAM-His6
Excerpt: TWICE molecules were engineered with the CD3 antibody SP34 and the CTLA4 antibody Ipilimumab and containing the hetero-Fc dimerization domain. In some examples, the anti-EpCAM antibody Solitomab was used as a Fab (TWICE277 and TWICE278), in other examples this antibody was used as a disulfide-stabilized Fv (dsFv, TWICE332 and TWICE335) by engineering a disulfide between the residue 44 of the VH and residue 100 of the VL (referring to Kabat numbering). The TWICE molecules were expressed and purified by Protein A affinity chromatography as described above, and their ability to bind to EpCAM was tested in an ELISA binding assay. Recombinant soluble EpCAM-His6 protein (produced in-house) was coated on ELISA plates at 5 μg/ml at 4° C. overnight and plates blocked with 1% BSA in PBS. Serial dilutions of TWICE were allowed to bind to EpCAM, and the bound TWICE were detected with a mouse anti-human Fc secondary (JDC-10 Abcam, ab99759).

[2] = target: T2, Recombinant soluble EpCAM-His6 protein; assay: ELISA
[3] = target: B2; assay: CD3 bridging ELISA on coated EpCAM, CD3-Fc detected with anti-mouse Fc
Experimental: (§1) To test the domain swap and generation of functional paratopes (i.e., paired VH/VL domains) by TWICE pairs, a bridging ELISA assay was developed that measures the ability of TWICE pairs to bind target antigen and immune cell engaging molecules simultaneously. The schematic drawing in FIG. 9A illustrates the principle of this bridging ELISA. Briefly, the ELISA plates are coated with target antigen (recombinant soluble EpCAM, black hexagon) at a concentration of 5 μg/ml overnight. TWICE molecules can be activated by cleavage with FXa as described above, and then added to the plate at a serial dilution. The TWICE can bind to the target antigen with their target binding moiety, which is drawn as Fab (4 grey ovals) in FIG. 9A. Binding to the target antigen (EpCAM) on the plate brings the TWICEs in close proximity, which allows the immune cell binding domain and the complementary binding domain to undergo domain swap and form complete immune cell binding paratopes (black and white ovals in FIG. 9A). The functional complementation is measured by incubation with an antigen that is bound by the immune cell binding domain, such as CD3 (striped triangle in FIG. 9A). The antigen is provided as an Fc-fusion protein (murine IgG2a Fc), and can therefore be detected with an anti-mouse Fc secondary antibody. […]

[4] = target: T3, CTLA-4 Fc-fusion protein (murine IgG2a Fc) (murine, UniProt P16410 36-161 (human entry), limits assumed); assay: CTLA-4 bridging ELISA on coated EpCAM, CTLA-4-Fc detected with anti-mouse Fc
T3 construct: Soluble antigen of the bridging ELISA; not shown: murine IgG2a Fc
Experimental: as §1

[5] = target: T4, TWICE277 plus TWICE278, combined, not cleaved; assay: CD3 bridging ELISA on coated EpCAM
T4 construct: Two-component pair with intact hetero-Fc dimerization domains
Experimental: as §1

T3 sequence (P16410 36-161 limits assumed): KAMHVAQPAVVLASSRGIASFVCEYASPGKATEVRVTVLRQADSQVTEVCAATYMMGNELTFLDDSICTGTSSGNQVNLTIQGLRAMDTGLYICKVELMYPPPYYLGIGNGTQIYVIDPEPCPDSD

Binder	binding result [1]	EC50 [2]	binding result [3]	binding result [4]	binding result [5]
B1	binds	1.21 nM	no binding	no binding	
B2					no binding
B3	binds	1.04 nM			
